Assay results taken from patent publication US20200362033A1 (Daiichi Sankyo, published 2020).

T1: human-cynomolgus monkey chimeric CD147 hCD147-mu3, on CHO-K1 cells (human, UniProt P35613 140-385)
T1 construct: also called hCD147-mu3_pcDNA3.1; CD147 with mu3 mutation
T1 chain: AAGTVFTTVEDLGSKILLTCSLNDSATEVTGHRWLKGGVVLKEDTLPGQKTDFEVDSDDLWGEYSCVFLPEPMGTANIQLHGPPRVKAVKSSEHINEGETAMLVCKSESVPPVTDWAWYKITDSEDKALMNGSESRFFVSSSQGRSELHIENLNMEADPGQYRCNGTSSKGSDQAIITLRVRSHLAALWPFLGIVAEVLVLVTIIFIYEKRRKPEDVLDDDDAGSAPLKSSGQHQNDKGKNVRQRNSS

T2: human CD147 variant 2 expressed on CHO-K1 cells (pcDNA-DEST40-CD147v2) (human, UniProt P35613 140-385)
T2 construct: also called CHO-K1-hCD147v2; human CD147 expressing CHO-K1 cells
T2 sequence: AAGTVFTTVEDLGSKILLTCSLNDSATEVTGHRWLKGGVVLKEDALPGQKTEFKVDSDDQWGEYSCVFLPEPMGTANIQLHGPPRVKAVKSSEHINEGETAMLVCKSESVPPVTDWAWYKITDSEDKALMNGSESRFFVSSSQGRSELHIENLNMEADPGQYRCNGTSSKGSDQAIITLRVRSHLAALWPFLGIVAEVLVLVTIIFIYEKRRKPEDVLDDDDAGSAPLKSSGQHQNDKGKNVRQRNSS


Assays:
[1] = biological target: T1, human-cynomolgus monkey chimeric CD147 …; assay: flow cytometry, transfected CHO-K1 cells
Experimental: Samples with an increase in fluorescence signals of 10 times or more as compared with those in the control cells that were not treated with primary antibodies were determined to be binding positive (+). Samples with a partial increase in fluorescence signals of less than 10 times were determined to be binding slightly positive (±). Samples with no increase in fluorescence signals as compared with those in the control cells that were not treated with primary antibodies were determined to be binding negative (−).

[2] = biological target: T2, human CD147 variant 2 expressed on …; assay: flow cytometry, CHO-K1 cells transfected with human CD147v2, antibody 10 µg/ml, anti-mouse IgG-FITC (Example 1)-8)
Text: In the graphs, the vertical axis represents the number of cells, and the horizontal axis represents the intensity of fluorescence signals.

binding result [1]	binding result [2]	Binder
no binding (tested: 10 µg/ml)		2P10F2 (antibody, V domains shown, also called 2P10F2 rat antibody) VH: EVQLQESGPGLVKPSQSLSLTCSVTGYSITSNYWGWIRKFPGNKMEWMGCITYSGGTSYNPSLKSRISITRDTSKNQFFLQLNSVTTEDTATYYCASSYTSGDVDYWGQGVMVTVSS VL: DIQMTQSPASLSASLGETVSIECLASEGISNSLAWYQQKPGKSPQLLIYGASSLQDGVPSRFSGSGSGTQYSLKISGMQPEDEGVYYCQQGYKYPFTFGSGTKLEIKR
no binding (tested: 10 µg/ml)	binds	LN22R8 (antibody, V domains shown, also called mouse anti-human CD147 antibody (LN22R8)) VH: QIQLVQSGPELKKPGETVKISCKASGYTFTNYGMNWVKQAPGKGLKWMGWINTYTGEPTYADDFKGRFAFSLETSASTAYLQINNLKNEDTATYFCARGGYGNYGAGAMDYWGQGTSVTVSS VL: DIQMTQSPSSLSASLGERVSLTCRASLEISGFLSWLQQKPDGTIKRLIYAASILDSGVPKRFSGSRSGSDYSLTISSLESEDFADYYCLQYASYPWTFGGGTKLEIKR
